In ChEMBL document CHEMBL1140886, “Development of an optimized activatable MMP-14 targeted SPECT imaging probe” (Bioorg Med Chem, 2009):

Tested on: CC[C@H](C)[C@H](NC(=O)[C@H](CCCNC(=N)N)NC(=O)CNC(=O)[C@@H](N)CO)C(=O)NCC(=O)N[C@@H](Cc1ccccc1)C(=O)N[C@@H](CC(C)C)C(=O)N[C@@H](CCCNC(=N)N)C(=O)N[C@H](C(=O)N[C@@H](C)C(=O)O)[C@@H](C)O
Experiment: Ratio of kcat/km for human recombinant MMP14 assessed as drug cleavage

Substance: Matrix metalloproteinase-14 (Homo sapiens) (from UniProt P50281)
- kcat/Km: 777000 M⁻¹ s⁻¹
